target: T1, rhVEGF165 (recombinant human vascular endothelial growth factor 165) (human, UniProt P15692-4 27-191); experiment: fluorescence polarization

Row | Binder | Kd
1 | GGAAGCCCGCTGTGACATCTGGAGCCGGTTCCCGAGCCA (ssDNA) [C 1] | 101 nM
2 | CCTTGTCATGATAGCTATGTTTCAGCCAACCATACCCGCT (ssDNA) [R 3] | 46 nM
3 | CGAGGATATCCGATTGTGGGTGACGTATTGGACACCTTCCCG (ssDNA) [C 2] | 162 nM
4 | TGGCTGTTATTTCTCTCGGCCTCAGATCTTGGGCCCAACA (ssDNA) [C 3] | 164 nM
5 | GTCTGTACCAATCTAAAAGTGTATATTATATCTACGAGCCT (ssDNA) [R 1] | 100 nM
6 | ATTCTGGGGAGTGGTACGTAAGCAGTGCCACCACGGTTAT (ssDNA) [R 2] | 88 nM

target: T1, rhVEGF165 (recombinant human vascular …); experiment: affinity capillary electrophoresis

Row | Binder | Kd
7 | GGAAGCCCGCTGTGACATCTGGAGCCGGTTCCCGAGCCA (ssDNA) [C 1] | 49 nM
8 | CCTTGTCATGATAGCTATGTTTCAGCCAACCATACCCGCT (ssDNA) [R 3] | 22 nM
9 | CGAGGATATCCGATTGTGGGTGACGTATTGGACACCTTCCCG (ssDNA) [C 2] | 21 nM
10 | TGGCTGTTATTTCTCTCGGCCTCAGATCTTGGGCCCAACA (ssDNA) [C 3] | 66 nM
11 | GTCTGTACCAATCTAAAAGTGTATATTATATCTACGAGCCT (ssDNA) [R 1] | 53 nM
12 | ATTCTGGGGAGTGGTACGTAAGCAGTGCCACCACGGTTAT (ssDNA) [R 2] | 72 nM

Reference: paper PMC3892959
